Reference: publication PMC10683472, “Deep Learning-Driven Library Design for the De Novo Discovery of Bioactive Thiopeptides” (ACS Central Science, 2023)

Biological target: T1, TLR10 (Homo sapiens, UniProt Q9BXR5)
T1 sequence (Q9BXR5 20-576): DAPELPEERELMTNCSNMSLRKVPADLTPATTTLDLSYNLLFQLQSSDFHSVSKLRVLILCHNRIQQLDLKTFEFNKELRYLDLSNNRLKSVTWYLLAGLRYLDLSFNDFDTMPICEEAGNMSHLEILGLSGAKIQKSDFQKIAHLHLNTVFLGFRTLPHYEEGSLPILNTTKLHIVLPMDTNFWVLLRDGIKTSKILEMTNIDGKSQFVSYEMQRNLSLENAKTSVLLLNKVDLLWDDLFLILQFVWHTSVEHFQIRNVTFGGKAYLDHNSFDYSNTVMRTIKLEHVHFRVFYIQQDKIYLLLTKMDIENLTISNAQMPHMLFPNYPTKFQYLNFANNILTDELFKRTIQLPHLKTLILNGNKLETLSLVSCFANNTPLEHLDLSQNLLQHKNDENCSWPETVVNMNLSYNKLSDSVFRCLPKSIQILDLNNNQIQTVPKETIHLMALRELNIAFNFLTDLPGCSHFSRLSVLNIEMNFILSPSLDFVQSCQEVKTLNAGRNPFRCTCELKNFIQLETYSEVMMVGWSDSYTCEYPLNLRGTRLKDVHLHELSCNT
Experiment: mRNA display affinity selection against TLR10, NGS abundance
Type: binding
Set-up: Chimera protein (extracellular domain, amino acid 20-576;); Fc (chimera); purchased R&D system #6619-TR-050
Conditions: Top100 selection hits, NGS

| Sequence | Library fraction (TLR10 selection pulldown (+)) | Raw reads (TLR10 selection pulldown (+)) | Library fraction (TLR10 selection pulldown (-)) | Raw reads (TLR10 selection pulldown (-)) |
| --- | --- | --- | --- | --- |
| SIETTNMVLL | 0.00031 | 30 | – | – |
| SIKFVFQGKLAI | 0.00046 | 45 | – | – |
| SILFPHQQKLLF | 0.00044 | 43 | – | – |
| SILFSIQNKLVL | 0.00021 | 20 | – | – |
| SIMFALQQKLLF | 0.004 | 389 | 0.00189 | 226 |
| SIMIYCNQKIRG | 0.00114 | 111 | – | – |
| SIQFKVLQKLAF | 0.00018 | 18 | – | – |
| SITFPMQRHIAF | – | – | 0.00112 | 133 |
| SITFQTLNKIAY | – | – | 0.006 | 714 |
| SIVFHLTNKMAF | 0.004 | 391 | 0.004 | 462 |
| SIWFPLQRKIAA | 0.00746 | 727 | 0.026 | 3115 |
| SIYFEKAEKVAF | 0.00071 | 69 | – | – |
| SKIIIRGQGIRG | – | – | 0.00238 | 284 |
| SKIIWSNQAIRG | – | – | 0.007 | 798 |
| SKQVYHKQTIVG | 0.00063 | 61 | – | – |
| SLEFPHLVIH | 0.00028 | 27 | – | – |
| SLELKHIVFH | – | – | 0.00222 | 265 |
| SLELSRVNVVIH | – | – | 0.00163 | 194 |
| SLETNSVVWI | 0.00021 | 20 | – | – |
| SLETSHLVIY | 0.00035 | 34 | – | – |
| SMCVWARQKIVG | 0.00071 | 69 | 0.00054 | 64 |
| SMEFVKIPLVIH | 0.00041 | 40 | – | – |
| SMHYRFLCKIAF | – | – | 0.001 | 117 |
| SMLFRLANKIAF | – | – | 0.040 | 4812 |
| SMLLPMQRVVMF | 0.00018 | 18 | – | – |

| Sequence | Library fraction (TLR10 selection pulldown (+)) | Raw reads (TLR10 selection pulldown (+)) | Library fraction (TLR10 selection pulldown (-)) | Raw reads (TLR10 selection pulldown (-)) |
| --- | --- | --- | --- | --- |
| SMLVWKGQSIRG | 0.004 | 408 | 0.002 | 248 |
| SMYFESLNKLAV | – | – | 0.00044 | 52 |
| SNIVWCGQGIIG | 0.168 | 16419 | 0.077 | 9156 |
| SNSNRYGGLITS | 0.045 | 4431 | 0.005 | 582 |
| SNVIYARQHIIG | 0.0005 | 49 | – | – |
| SPIHFRSVL | 0.00047 | 46 | – | – |
| SQFNHAMGWYVN | – | – | 0.00131 | 156 |
| SRIIYMNQSIRG | – | – | 0.00043 | 51 |
| SRTIYRCQSIRG | 0.008 | 777 | 0.00125 | 149 |
| SRTNRFGGHMAS | 0.168 | 16419 | 0.008 | 995 |
| SSPNRYGGNVNT | 0.00122 | 119 | 0.00077 | 92 |
| SSTVWKLQTICG | – | – | 0.00046 | 55 |
| SSYVYHKQRIRG | 0.00022 | 21 | – | – |
| STHIYSKQGIRG | 0.004 | 409 | 0.001 | 116 |
| STIVFKHQQISG | 0.00018 | 18 | – | – |
| STIVFTFQCIKG | 0.012 | 1142 | 0.008 | 919 |
| STKNQYGGWSPA | 0.00034 | 33 | – | – |
| STLFFMFQGIRG | 0.00019 | 19 | – | – |
| STLIYKLQCILG | 0.0008 | 78 | – | – |
| SVCVYQHQGIRG | 0.035 | 3411 | 0.010 | 1149 |
| SVDFGQVVIH | – | – | 0.00054 | 65 |
| SVEVWVNQKIRG | – | – | 0.003 | 343 |
| SVIFNLLRQVAY | 0.00017 | 17 | – | – |
| SVMNVFGGNAAT | 0.00029 | 28 | – | – |
| SVPFPLQRKLVF | 0.005 | 482 | 0.00118 | 141 |

| Sequence | Library fraction (TLR10 selection pulldown (+)) | Raw reads (TLR10 selection pulldown (+)) | Library fraction (TLR10 selection pulldown (-)) | Raw reads (TLR10 selection pulldown (-)) |
| --- | --- | --- | --- | --- |
| SVSFPLQRKLVF | 0.00065 | 63 | – | – |
| SVVVWHAQPIMG | – | – | 0.006 | 714 |
| TCFSHYLIM | – | – | 0.002 | 237 |
| TFLGGNVRAWI | – | – | 0.00088 | 105 |
| TIELTHAYLH | – | – | 0.00054 | 64 |
| TIKFPRLQMLAI | 0.00066 | 64 | – | – |
| TILFPLQRRLVV | – | – | 0.0018 | 215 |
| TILFSLQNVRAF | 0.00137 | 134 | 0.0033 | 394 |
| TIRFTNQNKIAF | 0.038 | 3740 | 0.095 | 11292 |
| TIYFKLQKAVAL | 0.00055 | 54 | – | – |
| TLELKAIVFH | – | – | 0.00044 | 52 |
| TLELQSVVLH | 0.00033 | 32 | – | – |
| TLHFRRQNKIAY | 0.020 | 1927 | 0.011 | 1314 |
| TMCFTFSKMVAF | – | – | 0.00058 | 69 |
| TMFFRRQNAMAL | 0.00074 | 72 | – | – |
| TMHFSNQRKLVF | 0.00022 | 21 | – | – |
| TMLFRLQSKLAI | – | – | 0.013 | 1571 |
| TMMFPHQRKLAF | – | – | 0.009 | 1056 |
| TMMFPRLGKVAY | 0.00528 | 515 | 0.003 | 351 |
| TMQFPLQRRMAI | 0.00468 | 456 | 0.002 | 241 |
| TNPYGGNITM | 0.015 | 1427 | 0.00949 | 1132 |
| TNPYGGNVGW | 0.143 | 13980 | 0.238 | 28345 |
| TYWKACAMSHIP | 0.00237 | 231 | 0.00056 | 67 |
